Experimental data taken from publication PMC10200060, “Inhibition of DAMP actions in the tumoral microenvironment using lactoferrin-glycyrrhizin conjugate for glioblastoma therapy” (Biomaterials Research, 2023).

B1: lactoferrin (protein, UniProt P02788 20-710, looked up)
Lactotransferrin: GRRRSVQWCAVSQPEATKCFQWQRNMRKVRGPPVSCIKRDSPIQCIQAIAENRADAVTLDGGFIYEAGLAPYKLRPVAAEVYGTERQPRTHYYAVAVVKKGGSFQLNELQGLKSCHTGLRRTAGWNVPIGTLRPFLNWTGPPEPIEAAVARFFSASCVPGADKGQFPNLCRLCAGTGENKCAFSSQEPYFSYSGAFKCLRDGAGDVAFIRESTVFEDLSDEAERDEYELLCPDNTRKPVDKFKDCHLARVPSHAVVARSVNGKEDAIWNLLRQAQEKFGKDKSPKFQLFGSPSGQKDLLFKDSAIGFSRVPPRIDSGLYLGSGYFTAIQNLRKSEEEVAARRARVVWCAVGEQELRKCNQWSGLSEGSVTCSSASTTEDCIALVLKGEADAMSLDGGYVYTAGKCGLVPVLAENYKSQQSSDPDPNCVDRPVEGYLAVAVVRRSDTSLTWNSVKGKKSCHTAVDRTAGWNIPMGLLFNQTGSCKFDEYFSQSCAPGSDPRSNLCALCIGDEQGENKCVPNSNERYYGYTGAFRCLAENAGDVAFVKDVTVLQNTDGNNNEAWAKDLKLADFALLCLDGKRKPVTEARSCHLAMAPNHAVVSRMDKVERLKQVLLHQQAKFGRNGSDCPDKFCLFQSETKNLLFNDNTECLARLHGKTTYEKYLGPQYVAGITNLKKCSTSPLLEACEFLRK
B2: Lf-GL-FITC: FITC-tagged Lf-GL for cellular uptake studies (conjugate, UniProt P02788 20-710, looked up)
Lactotransferrin: GRRRSVQWCAVSQPEATKCFQWQRNMRKVRGPPVSCIKRDSPIQCIQAIAENRADAVTLDGGFIYEAGLAPYKLRPVAAEVYGTERQPRTHYYAVAVVKKGGSFQLNELQGLKSCHTGLRRTAGWNVPIGTLRPFLNWTGPPEPIEAAVARFFSASCVPGADKGQFPNLCRLCAGTGENKCAFSSQEPYFSYSGAFKCLRDGAGDVAFIRESTVFEDLSDEAERDEYELLCPDNTRKPVDKFKDCHLARVPSHAVVARSVNGKEDAIWNLLRQAQEKFGKDKSPKFQLFGSPSGQKDLLFKDSAIGFSRVPPRIDSGLYLGSGYFTAIQNLRKSEEEVAARRARVVWCAVGEQELRKCNQWSGLSEGSVTCSSASTTEDCIALVLKGEADAMSLDGGYVYTAGKCGLVPVLAENYKSQQSSDPDPNCVDRPVEGYLAVAVVRRSDTSLTWNSVKGKKSCHTAVDRTAGWNIPMGLLFNQTGSCKFDEYFSQSCAPGSDPRSNLCALCIGDEQGENKCVPNSNERYYGYTGAFRCLAENAGDVAFVKDVTVLQNTDGNNNEAWAKDLKLADFALLCLDGKRKPVTEARSCHLAMAPNHAVVSRMDKVERLKQVLLHQQAKFGRNGSDCPDKFCLFQSETKNLLFNDNTECLARLHGKTTYEKYLGPQYVAGITNLKKCSTSPLLEACEFLRK
modifications: FITC label; GL conjugate
notes: FITC-tagged Lf-GL for cellular uptake studies

Tests used:
[1] = test system: orthotopic GBM (U87MG) mice model; assay: TUNEL assay of GBM tissue; assay type: in vivo, Balb/c nude mice; details: daily i.v., 14 days (control 28.5 ± 4.8)
Source text: (§1) After two weeks, mice were sacrificed, and the brains were harvested and fixed with paraformaldehyde (4%). Then, tissue processing was automatically conducted using a Leica TP1020 semi-enclosed Benchtop Tissue Processor (Leica Biosystems, Wetzlar, Hesse, Germany), followed by embedding in paraffin blocks. Paraffin blocks were sliced into 5 μm thick slices using a Leica RM2145 Microtome (Leica Biosystems). Nissl staining was used to stain brain tissue slides with pre-warmed 0.1% Cresyl Violet Stain Solution (Abcam). TUNEL assays were conducted following the manufacturer’s instructions. For immunofluorescence staining; anti-HMGB1 antibody (Abcam), anti-Ki67 antibody (Abcam), anti-CD31 antibody (Abcam), and anti-VEGF antibody (Abcam) were used as primary antibodies, and goat anti-rabbit IgG-H&L Alexa Fluor 488 and goat anti-rabbit IgG H&L Alexa Fluor 647 were used as secondary antibodies, followed by DAPI mounting.

[2] = test system: orthotopic GBM (U87MG) mice model; assay: Survival in orthotopic GBM mouse model; assay type: in vivo, Balb/c nude mice; details: i.v. GL equivalent 50 mg kg^−1 (Lf 5 mg kg^−1)
Procedure: To establish the orthotopic GBM mice model, GBM cells (U87MG, inoculation density: 1.0 × 10^6 cells per 10 μL) were stereotactically injected into the right striatum of Balb/c nude mice. Then, mice were randomly divided into four groups (n = 5): control, GL, Lf, and Lf-GL treated group. […] After four weeks, mice were sacrificed, and organs were harvested and fixed with 4% paraformaldehyde for further analysis.

HMGB1 [3] = assay: HMGB1 ELISA of U87MG culture medium; assay type: cell-based, human; details: 50 μM GL equivalent, 48 h (control 131.8 ± 11.4)
Procedure: U87MG cells were seeded in 100 mm-cell culture dishes (2.2 × 10^6 cells per dish) and treated with GL, Lf, or Lf-GL (50 × 10^–6 M GL equivalent concentration) for 48 h. After incubating, cells were collected using a cell scrapper and were centrifuged for 3 min at 150 × g. Supernatant was collected as cell culture medium, and pellets were washed with cold PBS twice and transferred into a microcentrifuge tube. Tubes were centrifuged, and then pellets were resuspended in 500 μL 1X hypotonic buffer and incubated on ice. Then, 25 μL of NP40 was added and the mixture was agitated using a vortex mixer at the highest setting. Homogenates were centrifuged for 10 min at 842 × g at 4℃. Supernatant was collected as the cytoplasmic fraction, and pellets were resuspended in cell extraction buffer (50 μL) and were incubated for 30 min on ice with vortexing at 10 min intervals. Then, homogenates were centrifuged for 30 min at 14,000 × g at 4℃. Supernatant was collected as the nuclear fraction. The amount of HMGB1 in the samples was measured using a HMGB1 ELISA kit (Abbkine), and absorbance was measured at 450 nm in a micro-plate reader. A DNA assay (Quant-iT™ dsDNA Assay Kit, Invitrogen) was also conducted to express HMGB1 concentrations in equivalent amounts of DNA.

HMGB1 [4] = assay: Immunofluorescence staining of HMGB1 in GBM tissue; assay type: in vivo, Balb/c nude mice; details: GBM mice, daily i.v. GL equivalent 50 mg kg^−1, 14 days (control 15.3 ± 1.7)
Source text: as §1

[5] = test system: U87MG human glioma cell line; assay: Cell viability test (CCK-8) in U87MG; assay type: cell-based; details: 50 μM GL equivalent, after 48 h treatment
Procedure: Cell viability was determined using a cell counting kit-8 (CCK-8). U87MG and HUVECs (seeding density: 0.75 × 10^4 cells per well) in 96-well culture plates were treated with GL, Lf, or Lf-GL (25 to 200 × 10^–6 M of GL equivalent concentration) and were incubated for different periods of time (24, 48, and 72 h). After washing with PBS, they were treated with a cell culture medium containing a CCK-8 assay kit (Abbkine) and were incubated at 37 °C and 5% CO2 for 2 h. Then, absorbance was measured at 450 nm in a micro-plate reader (VLBL00D0, Thermo Fisher Scientific). Results were quantified using Sigma Plot (Systat Software, USA). To determine the effect of extracellular HMGB1 in GBM and endothelial cell proliferation, U87MG and HUVECs were seeded in 96-well culture plates (seeding density: 0.75 × 10^4 cells per well) and GL, Lf, or Lf-GL (50 × 10^–6 M GL equivalent concentration) were added to cells with or without HMGB1 protein (U87MG: 0.1 μg mL^−1, and HUVEC: 1 μg mL^−1). Cells were incubated for different periods of time (24, 48, and 72 h).

HMGB1 [6] = assay: HUVEC co-cultured with U87MG: HMGB1 ELISA; assay type: cell-based, human; details: HUVEC/U87MG co-culture, 100 μM GL equivalent, 24 h (control 217.8 ± 5.9)
Procedure: (§2) To evaluate the inhibitory effect of Lf-GL on neovascularization in the tumor microenvironment in vitro, U87MG cells were seeded in the Transwell® insert chambers that were 6.5 mm in diameter and had 0.4 μm pore sizes (seeding density: 2.5 × 10^4 cells per well, Corning). HUVECs were seeded in the Transwell basal chamber (seeding density: 5.0 × 10^4 cells per well). GL, Lf, or Lf-GL (100 × 10^–6 M of GL equivalent concentration) were added to the insert chamber, and cells were incubated for 24 h. CCK-8 assay and HMGB1 ELISA were conducted at the basal chamber.

HUVEC = HUVEC co-cultured with U87MG: CCK-8 at basal chamber; assay type: cell-based, human; details: HUVEC/U87MG Transwell co-culture, 100 μM GL equivalent, 24 h
Procedure: as §2

[7] = biological target: T1, human recombinant HMGB1 protein (Homo sapiens, UniProt P09429); assay: SPR binding affinity against HMGB1; details: SPR, HMGB1 immobilized
T1 construct: purchased Abcam
T1 sequence (P09429 1-215): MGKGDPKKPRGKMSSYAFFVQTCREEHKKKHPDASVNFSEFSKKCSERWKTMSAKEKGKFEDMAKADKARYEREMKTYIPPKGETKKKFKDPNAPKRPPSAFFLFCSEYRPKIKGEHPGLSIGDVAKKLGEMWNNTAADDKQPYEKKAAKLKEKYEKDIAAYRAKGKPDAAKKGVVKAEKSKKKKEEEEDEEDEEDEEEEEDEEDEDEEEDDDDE
Procedure: To confirm the binding affinity of Lf-GL to HMGB1, Surface Plasmon Resonance (SPR) was conducted at WoojungBSC (Korea). The Reichert SR7500DC system (Reichert technologies, NA, USA) and Scrubber2 software (Biologic software, FRA) were used, and a CMDH chip (Cat #: 13,206,066, Reichert technologies) was used for immobilization of the human recombinant HMGB1 protein (Abcam). HMGB1 protein was used as a ligand, and the analytes were HMGB1 antibody (Abcam), GL, Lf and Lf-GL conjugate. The immobilization buffer was S.A. (10 × 10^–3 M, pH 4.5), and the running buffer was PBS (pH 7.4). The flow rate of the analyte was 30 μL min^−1. The association and dissociation time were 3 min each, and measurements were conducted at room temperature. Results are expressed in response units (RU) over time.
Fig. S5. Binding affinity against HMGB1. Surface Plasmon Resonance (SPR) was conducted at WoojungBSC (Korea). The Reichert SR7500DC system (Reichert technologies, NA, USA) and Scrubber2 software(Biologic software, FRA) were used and the CMDH chip (Cat #: 13206066, Reichert technologies) was used for immobilization of the human recombinant HMGB1 protein (Abcam). HMGB1 protein was used as ligand and analytes were HMGB1 antibody (Abcam), GL, Lf and Lf-GL conjugate. Immobilization buffer was 10 mM S.A. (pH 4.5) and running buffer was 1× PBS. The flow rate of the analyte was 30 μL min^-1. The association and dissociation time were 3 min each and conducted at room temperature. Results are expressed in response units (RU) over time.

[8] = test system: orthotopic GBM (U87MG) mice model; assay: Nissl staining: GBM/normal brain ratio; assay type: in vivo, Balb/c nude mice; details: daily i.v. GL equivalent 50 mg kg^−1, 14 days (control 37.5 ± 2.3)
Source text: as §1

CD31 = assay: Immunofluorescence staining of CD31 in GBM tissue; assay type: in vivo, Balb/c nude mice; details: GBM mice, daily i.v., 14 days (control MFI 14.7 ± 1.4)
Source text: as §1

U87MG cells = assay: Cellular uptake of FITC-tagged Lf-GL (flow cytometry); assay type: cell-based, human; details: 2 h incubation, Lf pre-treatment 500 nM
Procedure: To verify cellular uptake of Lf-GL, U87MG cells (seeding density: 2.5 × 10^4 cells per well) in an 8 well Nunc™ Lab-Tek II chambered coverglass (Thermo Scientific) were treated with FITC-tagged Lf-GL (1 × 10^–6 M) for different time periods (0 to 18 h). After washing with PBS, cells were treated with lysotracker (75 × 10^–9 M) and incubated for 2 h. Then, cells were fixed with 4% paraformaldehyde followed by DAPI mounting. Confocal laser scanning microscopy (SP8 X, Leica, Germany) was used to observe intracellular fluorescence, and images were processed using LAS X software (Leica).
Fig. S11. Significant cellular uptake of Lf-GL in U87MG. (a) Flow cytometry to evaluate cellular uptake of FITC tagged-Lf-GL (1 µM) in U87MG for 2,6, and 18 h. The 2 h pre-treatment of Lf and Pitstop® were treated in the concentration of 500 nM and 75 nM, respectively. (b) Quantification of cellular uptake for 18 h. Data were expressed as mean ± S.E.M (n=2).

Molecule | TUNEL MFI [1] | Mice survived up to 28 days [2] [%] | Additional days of survival versus PBS control ([2]; 28 days) [days] | HMGB1 released into the medium of U87MG cells (HMGB1 [3]) [ng/mL] | Mean fluorescence intensity (MFI) of HMGB1 (HMGB1 [4]) | Number of cells, % of the original count [5] [%] | HMGB1 level in medium (HMGB1 [6]) [ng/mL] | Reduction of endothelial cell proliferation (HUVEC) [%] | KD, equilibrium dissociation constant (KD = Kd Ka^−1) [7] [nM] | Ka, association rate constant ([7]; PBS pH 7.4, room temperature) | GBM/normal brain ratio [8] | Decrease of MFI of CD31 (CD31) [fold] | Decrease of cellular internalization in the presence of Lf (U87MG cells)
B1 | 9.4 ± 1.6 | 25 | 5 | 114 ± 3.4 | 7.9 ± 1.4 | 69.6 ± 5.7 | 177.3 ± 3.6 | 8.2 ± 2.9 | 165 ± 3 | (8.1±0.1)·10^4 M^-1s^-1 | 29.7 ± 3.3 | ~2 | 
B2 |  |  |  |  |  |  |  |  |  |  |  |  | about 17%
